“And” between values parts separate entries of the source, which are not always exact repeats. Equal values may be shown once. Ends that are not written are not given here. * marks the point of attachment. FITC = O=C1OC2(c3ccc(O)cc3Oc3cc(O)ccc32)c2ccc(NC(=S)*)cc21
How the values were obtained:
Details in all cases: both partners purified
[1] = target: hHsp70-CSSSS (hHsp70 C267S/C306S/C574S/C603S) (human, UniProt P0DMV8 1-641, C267S | C306S | C574S | C603S); experiment: fluorescence polarisation; steady state; 20 nM FAR with increasing hHsp70 or mutant; apo (no nucleotide); Buffer B; RT, 60 min; single site binding model
Chain of hHsp70-CSSSS (hHsp70 C267S/C306S/C574S/C603S) (P0DMV8 whole entry C267S/C306S/C574S/C603S, the tested form may be a part): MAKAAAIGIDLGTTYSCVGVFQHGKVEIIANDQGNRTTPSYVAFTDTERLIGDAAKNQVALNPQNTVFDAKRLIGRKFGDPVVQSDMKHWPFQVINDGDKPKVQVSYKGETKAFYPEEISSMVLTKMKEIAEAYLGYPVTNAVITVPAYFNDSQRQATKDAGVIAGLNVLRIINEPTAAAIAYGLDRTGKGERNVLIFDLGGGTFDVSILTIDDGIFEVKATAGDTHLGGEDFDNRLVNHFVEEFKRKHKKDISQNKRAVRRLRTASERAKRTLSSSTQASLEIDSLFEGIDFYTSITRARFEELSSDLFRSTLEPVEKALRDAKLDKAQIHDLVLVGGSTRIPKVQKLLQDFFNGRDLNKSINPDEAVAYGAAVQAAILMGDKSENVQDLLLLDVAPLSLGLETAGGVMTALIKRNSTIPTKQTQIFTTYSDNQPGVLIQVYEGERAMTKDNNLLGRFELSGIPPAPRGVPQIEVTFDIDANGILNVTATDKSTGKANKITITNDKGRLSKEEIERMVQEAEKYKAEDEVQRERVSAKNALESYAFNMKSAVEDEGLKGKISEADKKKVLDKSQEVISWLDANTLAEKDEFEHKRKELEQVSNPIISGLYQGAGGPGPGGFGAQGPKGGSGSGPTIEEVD

[2] = target: T1, WT hHsp70 (human HspA1A), full-length (residues 1–641) (human, UniProt P0DMV8 1-641); experiment: as above
T1 construct: The deglutathionylated sample (glutathionylated, then 10 mM DTT) carries no modification and is written as this molecule; the label in the row tells which sample it was; also called HspA1A/B; untreated control (-C); source: monomeric peak collected
T1 sequence (P0DMV8 whole entry, the tested form may be a part): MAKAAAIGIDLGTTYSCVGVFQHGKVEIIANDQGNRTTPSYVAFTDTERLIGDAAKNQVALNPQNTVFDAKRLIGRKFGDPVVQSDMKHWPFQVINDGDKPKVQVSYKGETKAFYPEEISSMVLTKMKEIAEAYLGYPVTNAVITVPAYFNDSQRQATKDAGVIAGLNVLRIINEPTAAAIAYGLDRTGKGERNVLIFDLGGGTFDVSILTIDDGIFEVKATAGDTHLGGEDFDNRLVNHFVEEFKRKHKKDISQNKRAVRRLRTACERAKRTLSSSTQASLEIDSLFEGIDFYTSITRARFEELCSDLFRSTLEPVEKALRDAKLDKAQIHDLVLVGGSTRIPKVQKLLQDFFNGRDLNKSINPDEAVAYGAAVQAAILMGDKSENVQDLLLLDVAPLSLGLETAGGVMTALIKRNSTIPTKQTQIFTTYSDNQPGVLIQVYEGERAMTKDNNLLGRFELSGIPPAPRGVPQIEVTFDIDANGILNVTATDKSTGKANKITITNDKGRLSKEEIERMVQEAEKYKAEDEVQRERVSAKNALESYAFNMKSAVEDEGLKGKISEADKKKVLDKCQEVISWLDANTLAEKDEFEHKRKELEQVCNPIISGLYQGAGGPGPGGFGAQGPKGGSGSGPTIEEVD

[3] = target: hHsp70-CSSCC (hHsp70 C267S/C306S) (human, UniProt P0DMV8 1-641, C267S | C306S); experiment: as above
Chain of hHsp70-CSSCC (hHsp70 C267S/C306S) (P0DMV8 whole entry C267S/C306S): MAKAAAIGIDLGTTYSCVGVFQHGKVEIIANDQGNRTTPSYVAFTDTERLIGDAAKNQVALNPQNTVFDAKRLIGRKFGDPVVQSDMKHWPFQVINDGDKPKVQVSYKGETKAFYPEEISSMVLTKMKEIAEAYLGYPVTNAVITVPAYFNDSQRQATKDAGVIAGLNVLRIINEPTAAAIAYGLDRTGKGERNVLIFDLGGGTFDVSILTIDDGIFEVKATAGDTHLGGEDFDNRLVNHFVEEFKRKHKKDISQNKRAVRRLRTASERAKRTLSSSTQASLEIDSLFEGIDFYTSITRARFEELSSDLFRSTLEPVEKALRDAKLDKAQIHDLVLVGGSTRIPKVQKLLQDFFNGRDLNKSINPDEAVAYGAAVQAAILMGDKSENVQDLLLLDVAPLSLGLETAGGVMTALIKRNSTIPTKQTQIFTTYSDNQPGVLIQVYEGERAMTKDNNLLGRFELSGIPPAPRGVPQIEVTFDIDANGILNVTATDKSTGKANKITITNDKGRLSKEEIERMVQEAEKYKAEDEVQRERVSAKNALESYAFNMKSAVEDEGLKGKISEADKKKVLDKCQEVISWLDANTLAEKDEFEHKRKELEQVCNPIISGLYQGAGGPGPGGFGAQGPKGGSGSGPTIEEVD

[4] = target: hHsp70-CSSAA (hHsp70 C267S/C306S/C574A/C603A) (human, UniProt P0DMV8 1-641, C267S | C306S | C574A | C603A); experiment: as above
[5] = target: hHsp70-CSSAS (hHsp70 C267S/C306S/C574A/C603S) (human, UniProt P0DMV8 1-641, C267S | C306S | C574A | C603S); experiment: as above
Chain of hHsp70-CSSAS (hHsp70 C267S/C306S/C574A/C603S) (P0DMV8 whole entry C267S/C306S/C574A/C603S): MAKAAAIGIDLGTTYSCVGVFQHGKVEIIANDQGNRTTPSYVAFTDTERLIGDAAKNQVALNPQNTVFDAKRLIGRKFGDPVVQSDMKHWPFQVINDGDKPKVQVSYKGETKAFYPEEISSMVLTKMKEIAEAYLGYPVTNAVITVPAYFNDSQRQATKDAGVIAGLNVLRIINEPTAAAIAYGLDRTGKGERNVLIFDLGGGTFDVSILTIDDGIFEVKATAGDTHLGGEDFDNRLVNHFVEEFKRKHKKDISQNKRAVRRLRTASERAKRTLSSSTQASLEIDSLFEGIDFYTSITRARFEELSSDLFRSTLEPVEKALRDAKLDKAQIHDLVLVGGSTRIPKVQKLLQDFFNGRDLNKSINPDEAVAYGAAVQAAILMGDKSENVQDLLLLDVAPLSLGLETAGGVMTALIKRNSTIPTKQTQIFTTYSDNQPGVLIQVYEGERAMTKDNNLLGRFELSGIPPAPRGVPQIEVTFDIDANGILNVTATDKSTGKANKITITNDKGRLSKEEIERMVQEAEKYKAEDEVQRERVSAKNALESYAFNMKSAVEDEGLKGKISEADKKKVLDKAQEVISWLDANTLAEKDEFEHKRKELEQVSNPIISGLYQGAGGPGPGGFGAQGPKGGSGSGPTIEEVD

[6] = target: hHsp70-CSSCA (hHsp70 C267S/C306S/C603A) (human, UniProt P0DMV8 1-641, C267S | C306S | C603A); experiment: fluorescence polarisation; kinetic time course at RT; 20 nM FAR with 10 μM hHsp70 or mutant, apo or with ADP/ATP (1 mM; 0.5 mM ADP in Fig. 7C); 1 mM diamide with 1 mM GSH added at 60 min, 10 mM DTT at 120 min
Chain of hHsp70-CSSCA (hHsp70 C267S/C306S/C603A) (P0DMV8 whole entry C267S/C306S/C603A): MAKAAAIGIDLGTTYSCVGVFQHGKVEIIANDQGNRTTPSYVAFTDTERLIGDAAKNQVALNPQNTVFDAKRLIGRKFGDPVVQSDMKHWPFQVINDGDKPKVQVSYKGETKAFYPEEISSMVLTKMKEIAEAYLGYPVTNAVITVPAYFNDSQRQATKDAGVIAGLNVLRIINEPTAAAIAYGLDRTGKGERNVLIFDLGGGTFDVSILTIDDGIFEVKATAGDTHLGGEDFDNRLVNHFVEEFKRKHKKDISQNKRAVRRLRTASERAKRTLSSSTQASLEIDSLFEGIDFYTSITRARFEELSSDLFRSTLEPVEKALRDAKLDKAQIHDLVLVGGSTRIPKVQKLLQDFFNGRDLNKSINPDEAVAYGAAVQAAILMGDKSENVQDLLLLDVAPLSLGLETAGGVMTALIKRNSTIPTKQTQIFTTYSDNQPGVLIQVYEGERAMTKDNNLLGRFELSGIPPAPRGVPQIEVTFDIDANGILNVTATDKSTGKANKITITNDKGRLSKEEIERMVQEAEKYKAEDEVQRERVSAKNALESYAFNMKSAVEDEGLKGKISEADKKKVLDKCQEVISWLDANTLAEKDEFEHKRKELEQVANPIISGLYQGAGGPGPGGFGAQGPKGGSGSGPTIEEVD

[7] = target: hHsp70-CSSAC (hHsp70 C267S/C306S/C574A) (human, UniProt P0DMV8 1-641, C267S | C306S | C574A); experiment: as above
Chain of hHsp70-CSSAC (hHsp70 C267S/C306S/C574A) (P0DMV8 whole entry C267S/C306S/C574A): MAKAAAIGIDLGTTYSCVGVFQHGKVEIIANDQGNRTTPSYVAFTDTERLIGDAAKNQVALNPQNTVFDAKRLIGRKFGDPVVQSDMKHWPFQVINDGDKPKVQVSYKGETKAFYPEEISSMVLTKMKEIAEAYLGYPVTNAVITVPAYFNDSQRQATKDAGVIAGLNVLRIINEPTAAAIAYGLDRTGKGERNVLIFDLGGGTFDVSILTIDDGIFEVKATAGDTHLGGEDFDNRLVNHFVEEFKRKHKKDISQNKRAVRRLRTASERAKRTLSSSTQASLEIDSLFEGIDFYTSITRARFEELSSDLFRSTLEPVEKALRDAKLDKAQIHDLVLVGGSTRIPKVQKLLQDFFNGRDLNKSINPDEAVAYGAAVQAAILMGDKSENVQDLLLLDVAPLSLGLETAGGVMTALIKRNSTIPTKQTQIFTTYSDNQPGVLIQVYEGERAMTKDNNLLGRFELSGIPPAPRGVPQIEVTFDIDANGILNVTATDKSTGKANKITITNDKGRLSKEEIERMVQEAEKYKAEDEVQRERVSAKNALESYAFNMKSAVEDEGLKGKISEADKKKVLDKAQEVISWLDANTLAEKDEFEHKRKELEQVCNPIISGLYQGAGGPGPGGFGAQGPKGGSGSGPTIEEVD

[8] = target: hHsp70 T204A (binds but does not hydrolyze ATP) (human, UniProt P0DMV8 1-641, T204A); experiment: as above
Chain of hHsp70 T204A (binds but does not hydrolyze ATP) (P0DMV8 whole entry T204A): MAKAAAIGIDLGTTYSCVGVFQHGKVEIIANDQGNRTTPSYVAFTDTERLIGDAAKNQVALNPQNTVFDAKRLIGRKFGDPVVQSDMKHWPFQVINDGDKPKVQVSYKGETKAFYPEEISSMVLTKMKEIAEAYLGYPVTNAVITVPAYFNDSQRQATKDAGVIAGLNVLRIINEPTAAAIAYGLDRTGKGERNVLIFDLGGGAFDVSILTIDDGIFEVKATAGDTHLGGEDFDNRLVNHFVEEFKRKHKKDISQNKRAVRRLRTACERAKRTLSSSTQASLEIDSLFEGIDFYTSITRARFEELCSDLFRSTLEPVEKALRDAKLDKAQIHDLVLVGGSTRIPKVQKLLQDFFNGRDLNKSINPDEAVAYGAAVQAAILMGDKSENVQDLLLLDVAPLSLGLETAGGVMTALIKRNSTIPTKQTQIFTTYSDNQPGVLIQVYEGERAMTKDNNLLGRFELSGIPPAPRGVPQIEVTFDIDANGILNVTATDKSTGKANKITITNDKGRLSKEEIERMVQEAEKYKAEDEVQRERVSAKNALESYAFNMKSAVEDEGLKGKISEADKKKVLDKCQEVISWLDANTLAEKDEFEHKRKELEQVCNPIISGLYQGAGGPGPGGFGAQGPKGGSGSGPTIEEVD

[9] = target: T1, WT hHsp70 (human HspA1A), full-length …; experiment: fluorescence polarisation; steady state; 20 nM FAR with increasing hHsp70 (control, glutathionylated or deglutathionylated); 0.5 mM ADP in Buffer B (50 mM Tris-HCl pH 7.5, 100 mM KCl, 5 mM MgCl2); RT, 60 min; single site binding model

B1: FITC-labeled ALLLSAPRR (FAR) peptide (peptide)
peptide: {FITC}-ALLLSAPRR
notes: fluorescently labeled peptide substrate
binding result [1]: binds | Kd [2]: 1120 ± 120 nM | Kd [3]: 1350 ± 230 nM | Kd [4]: 1190 ± 210 nM | Kd [5]: 1440 ± 540 nM | binding result [6]: binds | binding result [7]: binds | binding result [8]: binds | Kd [9]: 1070 nM and 1200 nM

Reference: paper PMC7294093, “S-Glutathionylation of human inducible Hsp70 reveals a regulatory mechanism involving the C-terminal α-helical lid” (The Journal of Biological Chemistry, 2020)
